How the values were obtained:
[1] = target: Halo-FtsZ^D216A (Caulobacter crescentus); assay: single molecule tracking in live cells
[2] = target: Halo-FtsZ (FtsZ fused with HaloTag) (Caulobacter crescentus); assay: single molecule tracking in live cells

monomer lifetime [1] [s]	monomer lifetime [2] [s]	Substance
16.2	–	Halo-FtsZ^D216A (natural protein)
–	12.2	Halo-FtsZ (FtsZ fused with HaloTag) (natural protein)

— paper doi:10.1101/2023.09.08.556907
